Source: PMC11018115, “The EIN3 transcription factor GmEIL1 improves soybean resistance to Phytophthora sojae”

T1: GmEIL1 (Glycine max (cv. Suinong 10), UniProt A0A0R4J4Z8 1-610)
T1 sequence: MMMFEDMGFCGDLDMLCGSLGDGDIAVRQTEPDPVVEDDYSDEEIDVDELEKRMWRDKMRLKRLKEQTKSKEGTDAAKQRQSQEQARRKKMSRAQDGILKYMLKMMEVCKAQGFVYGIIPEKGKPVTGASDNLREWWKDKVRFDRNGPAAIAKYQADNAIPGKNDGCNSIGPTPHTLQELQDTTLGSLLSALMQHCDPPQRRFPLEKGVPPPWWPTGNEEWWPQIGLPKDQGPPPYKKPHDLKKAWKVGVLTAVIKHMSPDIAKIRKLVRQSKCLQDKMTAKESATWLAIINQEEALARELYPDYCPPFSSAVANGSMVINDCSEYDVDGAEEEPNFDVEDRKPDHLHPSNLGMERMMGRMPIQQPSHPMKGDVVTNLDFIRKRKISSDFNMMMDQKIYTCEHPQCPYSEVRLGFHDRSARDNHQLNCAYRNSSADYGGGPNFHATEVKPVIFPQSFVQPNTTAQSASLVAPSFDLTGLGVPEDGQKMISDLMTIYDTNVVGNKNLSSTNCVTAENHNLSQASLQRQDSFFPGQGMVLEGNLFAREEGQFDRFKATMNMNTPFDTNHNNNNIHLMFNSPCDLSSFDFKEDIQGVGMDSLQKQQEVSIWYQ

B1: mEBS probe (dsDNA)
DNA 1: GTTGTTTGGGATTCAAGGGGCCCCCCTCTTGAATCC
DNA 2: GGATTCAAGAGGGGGGCCCCTTGAATCCCAAACAAC
B2: EBS probe (dsDNA)
DNA 1: GTTGTTTGGGATTCAAGGGGCATGTATCTTGAATCC
DNA 2: GGATTCAAGATACATGCCCCTTGAATCCCAAACAAC

Biological target: T1, GmEIL1
Test: EMSA; EMSA after Garner and Revzin (1981), chemiluminescent detection; buffer, salt, pH and temperature not stated
Conditions: protein: recombinant; chain copies: 2; label: digoxigenin-ddUTP (Methods, legend); text also says biotin

| Binder | binding result |
| --- | --- |
| B1 | no binding |
| B2 | binds |
